How the values were obtained:
[1] = target: T1, hnRNPF (recombinant) (human, UniProt P52597 1-415); test: pull-down
T1 sequence: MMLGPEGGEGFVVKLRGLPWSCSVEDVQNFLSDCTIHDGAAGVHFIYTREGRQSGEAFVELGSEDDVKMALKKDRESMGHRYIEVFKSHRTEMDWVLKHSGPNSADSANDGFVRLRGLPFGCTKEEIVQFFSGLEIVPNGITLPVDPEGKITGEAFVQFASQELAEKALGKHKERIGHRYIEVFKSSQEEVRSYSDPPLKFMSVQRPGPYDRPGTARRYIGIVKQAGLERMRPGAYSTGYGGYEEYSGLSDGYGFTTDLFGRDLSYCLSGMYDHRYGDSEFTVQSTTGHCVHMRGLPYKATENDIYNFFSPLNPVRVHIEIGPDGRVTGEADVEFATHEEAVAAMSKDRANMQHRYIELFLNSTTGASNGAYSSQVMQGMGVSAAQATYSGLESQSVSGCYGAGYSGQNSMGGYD

[2] = target: T1, hnRNPF (recombinant); test: EMSA
[3] = target: T1, hnRNPF (recombinant); test: EMSA; remark: listed apart in the source

B1: Biotin-I-8-wt (structured_RNA)
RNA: GCUUUGGUGGUGGAAUGGUGCUAUGUGG
[1]
  binding result: binds

B2: I-8 G4m (ssRNA)
RNA: GCUUUGAUGAUGAAAUGAUGCUAUGUGG
[2]
  binding result: no binding

B3: I-8 (structured_RNA)
RNA: GCUUUGGUGGUGGAAUGGUGCUAUGUGG
[3]
  binding result: binds

From PMC5769772
